This is an account of results in PMC10245715 (bioRxiv, 2023).

This test deals with p97 (valosin-containing protein, VCP), full-length, wildtype, human (human, UniProt P55072 1-806). In words: SEC. (Size exclusion chromatography separates by hydrodynamic size, large species first.)
Sequence of p97 (valosin-containing protein, VCP), full-length, wildtype, human (P55072 whole entry): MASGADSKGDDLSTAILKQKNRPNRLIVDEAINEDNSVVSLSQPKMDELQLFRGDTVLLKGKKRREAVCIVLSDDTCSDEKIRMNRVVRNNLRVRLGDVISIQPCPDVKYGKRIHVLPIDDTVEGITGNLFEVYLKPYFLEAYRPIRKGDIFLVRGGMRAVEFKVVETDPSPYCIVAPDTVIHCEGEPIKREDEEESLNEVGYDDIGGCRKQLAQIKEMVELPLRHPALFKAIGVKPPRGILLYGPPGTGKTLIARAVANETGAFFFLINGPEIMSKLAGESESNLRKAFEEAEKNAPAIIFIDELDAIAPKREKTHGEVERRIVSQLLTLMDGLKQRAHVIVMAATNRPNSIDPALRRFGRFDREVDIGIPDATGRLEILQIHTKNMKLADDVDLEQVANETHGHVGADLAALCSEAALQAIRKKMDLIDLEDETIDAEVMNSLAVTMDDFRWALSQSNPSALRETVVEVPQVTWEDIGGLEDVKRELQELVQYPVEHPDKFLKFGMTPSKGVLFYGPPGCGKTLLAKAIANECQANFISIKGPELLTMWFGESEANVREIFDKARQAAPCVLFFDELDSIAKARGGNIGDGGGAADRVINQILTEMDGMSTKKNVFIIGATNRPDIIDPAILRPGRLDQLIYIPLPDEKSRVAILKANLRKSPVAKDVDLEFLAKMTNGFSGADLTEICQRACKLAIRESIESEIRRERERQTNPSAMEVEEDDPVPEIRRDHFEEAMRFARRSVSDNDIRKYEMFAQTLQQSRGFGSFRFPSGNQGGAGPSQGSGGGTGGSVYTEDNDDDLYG

B1: UBXD1 double mutant containing both the lariat and H4 changes, full-length (natural protein)
chain: MKKFFQEFKADIKFKSAGPGQKLKESVGEKAHKEKPNQPAPRPPRQGPTNEAQMAAAAALARLEQKQSRAWGPTQSRDVTQERIQNKAVLTEASGSPEAPGTNVVSEPREEGSAHLAVPGVYFTCPLTGATLRKDQRDACIKEAILLHFSTDPVAASIMKIYTFNKDQDRVKLGVDTIAKYLDNIHLHPEEEKYRKIKLQNKVFQERINCLEGTHEFFEAIGFQKVLLPAQDQEDPEEFYVLSETTLAQPQSLERHKEQLLAAEPVRAKLDRQRRVFQPSPLASQFELPGDFFNLTAERIKEEQRLESEAVRRLSVLRTKAMREKEEQRGLRKYNYTLLRVRLPDGCLLQGTFYARERLGAVYGFVREALQSDWLPFELLASGGQKLSEDENLALNECGLVPSALLTFSWDMAVLEDIKAAGAEPDSILKPELLSAIEKLL
For B1, the binding result was “binds”.
